What all share (settings): nanopore translocation, FLO-MIN112; background mutations not given
The target in series [1] is T1, Dda 1993 K358F K358F (Enterobacteria phage T4) (UniProt P32270).
T1 sequence: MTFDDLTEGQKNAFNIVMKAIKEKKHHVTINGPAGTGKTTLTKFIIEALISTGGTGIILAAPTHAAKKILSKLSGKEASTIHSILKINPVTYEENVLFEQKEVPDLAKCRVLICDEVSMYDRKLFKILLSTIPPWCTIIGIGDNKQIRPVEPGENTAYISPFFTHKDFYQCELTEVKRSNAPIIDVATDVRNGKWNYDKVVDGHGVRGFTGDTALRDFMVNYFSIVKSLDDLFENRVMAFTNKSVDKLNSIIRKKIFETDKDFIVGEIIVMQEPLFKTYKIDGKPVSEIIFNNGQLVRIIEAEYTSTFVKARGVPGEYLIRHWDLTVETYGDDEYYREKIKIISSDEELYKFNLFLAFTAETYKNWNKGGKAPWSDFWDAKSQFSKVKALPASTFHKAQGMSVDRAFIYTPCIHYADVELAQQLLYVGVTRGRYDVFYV

The target in series [2] is T2, Dda 1993 K358E K358E (Enterobacteria phage T4) (UniProt P32270).
T2 sequence: T1 sequence with F358E

The target in series [3] is T3, Dda 1993 K358I K358I (Enterobacteria phage T4) (UniProt P32270).
T3 sequence: T1 sequence with F358I

Series [4] has as its target T4, Dda 1993 K358S K358S (Enterobacteria phage T4) (UniProt P32270).
T4 sequence: T1 sequence with F358S

The target in series [5] is T5, Dda 1993 K358M K358M (Enterobacteria phage T4) (UniProt P32270).
T5 sequence: T1 sequence with F358M

The target of series [6] is T6, Dda 1993 351I 351I (Enterobacteria phage T4) (UniProt P32270).
T6 sequence: T1 sequence with K351I, F358K

Consider one substance from US20250382602.

Changes are numbered by the printed parent chain.

Regarding “barcoded 3.6 kb DNA analyte ligated to sequencing Y adaptor”, the activity (bps speed delta vs control) in series [1] is -10.9; in series [2], -7.28; in series [3], -5.51; in series [4] it was 1.6; in series [5], -11.8; in series [6], -9.76.
